The source of these data is US20210252145A1 (CELLASTER, published 2021).

Experiment [1] concerns the target T1, Δ619-624 of EPB41L5 (Flag-tagged deletion construct) (human, UniProt Q9HCM4 1-733).
T1 construct: also called A619-624; not shown: Flag tag from vector pSG5-KF2M1-Flag
The experiment is described as follows: immunofluorescent staining of MKN28 cells co-transfected with EPB41L5 siRNA and construct. How it is done:
At this time, the immunofluorescent staining was performed using anti-EPB41L5 mAb and anti-Flag antibodies. Green represents EPB41L5, red represents Flag tag, blue represents Hochest, and scale bars represent 20 μm.
Considering the characteristics of nonpermeabilized immunofluorescent staining, in order to inhibit expression of endogenous EPB41L5, cells were co-transfected with EPB41L5 siRNA and any one plasmid selected from among FL (full length) of EPB41L5, FERM of EPB41L5, C-terminus of EPB41L5 and Δ619-624 of EPB41L5. Then, expression of exogenous EPB41L5 was analyzed using anti-Flag antibody. EPB41L5 expression was detected in […] transfected with FL and C-terminal constructs and in MKN28 cells […] with A619-624 (FIG. 6H).

Experiment [2] concerns the target T2, FERM of EPB41L5 (N-terminal FERM domain construct, Flag-tagged) (human, UniProt Q9HCM4 43-327).
T2 construct: the real construct is only its N-terminal FERM domain; not shown: Flag tag from vector pSG5-KF2M1-Flag
The experiment in a line: Western blot of transfected 293T cells. (In western blotting, separated proteins are transferred to a membrane and probed.)

T1 sequence (Q9HCM4 other isoform, or with tags, fused parts or gaps mutant): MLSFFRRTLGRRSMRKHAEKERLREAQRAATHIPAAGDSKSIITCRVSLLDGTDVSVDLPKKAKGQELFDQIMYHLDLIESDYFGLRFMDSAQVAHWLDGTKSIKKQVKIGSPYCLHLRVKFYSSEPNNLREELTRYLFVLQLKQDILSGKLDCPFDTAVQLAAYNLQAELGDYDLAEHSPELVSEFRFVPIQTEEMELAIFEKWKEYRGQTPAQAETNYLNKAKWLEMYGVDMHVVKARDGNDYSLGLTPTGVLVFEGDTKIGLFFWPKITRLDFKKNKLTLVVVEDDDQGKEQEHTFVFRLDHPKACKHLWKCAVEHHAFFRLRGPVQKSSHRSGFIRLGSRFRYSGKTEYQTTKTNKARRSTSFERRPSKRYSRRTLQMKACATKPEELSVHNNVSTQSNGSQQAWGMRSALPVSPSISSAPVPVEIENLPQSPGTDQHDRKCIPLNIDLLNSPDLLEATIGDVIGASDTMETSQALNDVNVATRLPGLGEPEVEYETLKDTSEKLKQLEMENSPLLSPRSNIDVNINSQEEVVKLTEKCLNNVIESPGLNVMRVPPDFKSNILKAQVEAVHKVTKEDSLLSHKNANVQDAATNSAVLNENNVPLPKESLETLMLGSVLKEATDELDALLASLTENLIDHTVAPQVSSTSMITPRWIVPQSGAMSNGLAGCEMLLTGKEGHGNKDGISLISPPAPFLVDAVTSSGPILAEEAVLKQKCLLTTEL
T2 sequence (Q9HCM4 43-327): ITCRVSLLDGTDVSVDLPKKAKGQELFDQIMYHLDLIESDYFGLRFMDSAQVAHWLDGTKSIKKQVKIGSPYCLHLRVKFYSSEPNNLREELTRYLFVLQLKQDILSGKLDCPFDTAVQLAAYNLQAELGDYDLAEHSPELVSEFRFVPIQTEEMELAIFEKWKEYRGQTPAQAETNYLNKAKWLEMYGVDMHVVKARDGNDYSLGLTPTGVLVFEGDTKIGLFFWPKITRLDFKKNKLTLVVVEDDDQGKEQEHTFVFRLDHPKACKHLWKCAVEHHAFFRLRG

B1: anti-EPB41L5 monoclonal antibody (antibody, V domains shown)
VH: QVQLKESGTVLARPGASVKMSCKASGYTFTSYWMHWVKQRPGQGLEWIGAIYPGNSDTSYNQKFKDKAKLTAVTSTSTAYMELSSLTDEASAVYYCTRGGKLPFAMDYWGQGTSVTVSS
VL: DVLMTQTPLSLPVSLGDQASMSCRSSQSLVHSNGNTYLHWYLQKPGQSPKLLIYKVSNRFSGVPDRFSGSGSGTDFTLKISRVEAEDLGVYFCSQSTHVPWTFGGGTKLEIK
notes: also called anti-EPB41L5 mAb; EPB41L5 mAb
For B1, the binding result in experiment [1] and in experiment [2] was “no binding” throughout.
